Data published in article PMC9710096.

Assays:
Experiment in all cases: SEC
[1] = biological target: SARS-CoV-2 D614G Spike protein, tagless (SARS-CoV-2 | bacteriophage T4 (from the name T4 fibritin)) (UniProt P0DTC2)
[2] = biological target: SARS-CoV-2 Beta Spike protein (B.1.351), tagless (SARS-CoV-2 | bacteriophage T4 (from the name T4 fibritin)) (UniProt P0DTC2)
[3] = biological target: SARS-CoV-2 Gamma Spike protein (P.1), tagless (SARS-CoV-2 | bacteriophage T4 (from the name T4 fibritin)) (UniProt P0DTC2)
[4] = biological target: SARS-CoV-2 Delta Spike protein (B.1.617.2), tagless (SARS-CoV-2 | bacteriophage T4 (from the name T4 fibritin)) (UniProt P0DTC2)

SARS-CoV-2 D614G Spike protein, tagless (from UniProt P0DTC2 1-1208) (natural protein)
stoichiometry N [1]: 3

SARS-CoV-2 Beta Spike protein (B.1.351), tagless (from UniProt P0DTC2 1-1208) (natural protein)
stoichiometry N [2]: 3

SARS-CoV-2 Gamma Spike protein (P.1), tagless (from UniProt P0DTC2 1-1208) (natural protein)
stoichiometry N [3]: 3

SARS-CoV-2 Delta Spike protein (B.1.617.2), tagless (from UniProt P0DTC2 1-1208) (natural protein)
stoichiometry N [4]: 3
